According to publication PMC6771872, “Fast‐acting insulin aspart in people with type 2 diabetes: Earlier onset and greater initial exposure and glucose‐lowering effect compared with insulin aspart” (Diabetes, Obesity & Metabolism, 2019):

What was measured:
Type in all cases: in vivo, human
[1] = Serum IAsp pharmacokinetics after single subcutaneous dose (IAsp-specific ELISA); conditions: people with T2D, single s.c. 0.3 U/kg, 59 IAsp
Description: At the two dosing visits, participants received single dosing of 0.3 U/kg faster aspart (100 U/mL; Novo Nordisk, Bagsværd, Denmark) or IAsp (NovoRapid® 100 U/mL; Novo Nordisk) in a randomized sequence. Both trial products were provided in blinded PDS290 pen‐injector prefilled pens (Novo Nordisk) and administered subcutaneously in a lifted skin fold of the lower abdominal wall above the inguinal area. Use of current insulin was terminated in due time to allow washout before faster aspart and IAsp administration.
Blood sampling for pharmacokinetics was performed frequently from 2 minutes prior to dosing until 12 hours post‐dose (Table S2 in Appendix S1).
A validated IAsp‐specific enzyme‐linked immunosorbent assay with a lower limit of quantification (LLOQ) of 10 pmol/L was used to measure free serum IAsp concentrations following polyethylene glycol precipitation.
(§1) All pharmacokinetic and glucose infusion rate (GIR) endpoints to assess onset of exposure and glucose‐lowering effect, initial IAsp exposure and glucose‐lowering effect, offset of exposure and glucose‐lowering effect, and overall exposure and glucose‐lowering effect were defined and derived as previously described.5 In a blinded review of pharmacokinetic profiles, it was observed that selected profiles had pre‐dose values above the LLOQ and stayed above the LLOQ for the entire sampling period. It was therefore decided to baseline‐correct these profiles using a baseline value derived as the mean of all pre‐dose samples. After baseline correction, all pre‐dose values and negative values were set to zero. All pharmacokinetic endpoints for the baseline‐corrected profiles were derived in the same way as those for the non‐baseline‐corrected profiles.

[2] = system: people with type 2 diabetes; test: Safety assessments (adverse events, hypoglycaemic episodes, injection site reactions); conditions: single s.c. 0.3 U/kg
Description: Safety assessments included adverse events (AEs), hypoglycaemic episodes, injection site reactions, laboratory safety measures, physical examination, vital signs and ECG. AEs were defined as treatment‐emergent if they had onset within the period from time of trial product administration until 7 days later. Hypoglycaemic episodes were classified according to the American Diabetes Association12 and in addition defined as “confirmed” if documented by PG <3.1 mmol/L with or without symptoms consistent with hypoglycaemia. Hypoglycaemic episodes were defined as treatment‐emergent if they had onset between the time of trial product administration and the subsequent administration of any insulin; however, these should occur no longer than 16 hours after trial product administration.

[3] = system: people with type 2 diabetes; test: Suppression of serum free fatty acid (FFA) concentration after dosing; conditions: people with T2D, single s.c. 0.3 U/kg
Description: Serum free fatty acid (FFA) concentrations were measured using a Wako NEFA assay (Wako Diagnostics, Mountain View, California), performed on a Roche Cobas C501 analyser (Roche Diagnostics GmbH, Mannheim, Germany).
The suppression of serum FFA concentration initially after dosing was determined by calculating the area over the baseline‐corrected serum FFA concentration‐time curve during the first hour (ΔAOCFFA,0‐1 h) and the first 2 hours (ΔAOCFFA,0‐2 h) as well as the time to reach 50% of the maximum FFA decline in the initial part of the FFA profile (t50% max FFA decline). Furthermore, the minimum FFA concentration (FFAmin) was derived.
Statistical analyses were performed using SAS version 9.4 (SAS Institute, Cary, North Carolina). All endpoints were compared between faster aspart and IAsp using a linear mixed model, with treatment and period as fixed effects and participant as a random effect. The P value for the two‐sided test of no treatment difference using a significance level of 5% was estimated from the model. For FFA endpoints, baseline FFA was included as a covariate. […] Least squares means for each treatment, treatment ratios and 95% confidence intervals (CIs) were calculated on the original scale. All other endpoints were analysed on a linear scale: least squares means for each treatment, treatment differences and 95% CIs were estimated. Treatment ratios and 95% CIs were determined according to Fieller's method.14

[4] = system: people with type 2 diabetes; test: Euglycaemic glucose clamp, glucose infusion rate (glucose-lowering effect); conditions: people with T2D, single s.c. 0.3 U/kg, n = 56 faster aspart, 59 IAsp
Description: Participants arrived at the clinical site at 4:30 PM the day before dosing, were served a standardized meal and started fasting from 7:00 PM. In order to assess the pharmacodynamics of faster aspart and IAsp, a euglycaemic glucose clamp was conducted with an overnight run‐in period starting at 10:00 PM. Participants received a variable intravenous infusion of human insulin [40 IU Actrapid® 100 IU/mL (Novo Nordisk) in 99.6 mL saline] or 20% glucose to obtain the plasma glucose (PG) target concentration of 5.0 mmol/L. The trial product was administered between 8:00 AM and 10:00 AM the next morning after PG had stabilized for ≥1 hour with minimum insulin infusion and no glucose infusion. At the time of dosing, any infusion of intravenous insulin was terminated. After PG had declined by 0.3 mmol/L (defined as onset of action), a variable intravenous glucose infusion was initiated to keep PG at the target throughout the clamp. The clamp continued for up to 12 hours after dosing, but was terminated if PG was consistently ≥11.1 mmol/L, with no requirement for intravenous glucose infusion during the previous 30 minutes. The individual clamps were performed with similar high quality across both treatments (Figure S1 and Table S1 in Appendix S1).11
Measurement of PG concentrations during the glucose clamp was performed with a SuperGL 2 glucose analyser (Dr Müller Gerätebau GmbH, Freital, Germany) using an electrochemical method.
as §1

[5] = LS mean ± SE, n = 56 faster aspart, 58 IAsp
[6] = euglycaemic clamp, LS mean ± SE

## insulin aspart [IAsp]
[1]; offset of exposure, LS mean, n = 56 faster aspart
  tLate 50% Cmax (time to 50% of maximum IAsp concentration in the late part of the PK profile): 237.8 min
[1]; free serum IAsp by ELISA, LS mean ± SE, n = 56 faster aspart
  Onset of appearance: 4.4 ± 0.3 min
[1]; sampling until 12 hours, LS mean, n = 56 faster aspart
  AUCIAsp,0-t (total IAsp exposure): 1403 pmol·h/L
[1]; LS mean ± SE, n = 55 faster aspart
  tmax (time to maximum IAsp concentration): 86.9 ± 5.2 min
[1]; LS mean ± SE, n = 56 faster aspart
  tEarly 50% Cmax (time to 50% of maximum IAsp concentration in the initial part of the PK profile): 27.9 ± 1.0 min
[1]; LS mean, n = 56 faster aspart
  AUCIAsp,0-15min LS Mean: 7.4 pmol·h/L
  AUCIAsp,0-1h LS Mean: 189 pmol·h/L
  AUCIAsp,0-1.5h LS Mean: 355 pmol·h/L
  AUCIAsp,0-2h LS Mean: 516 pmol·h/L
  AUCIAsp,2-t (partial area under the serum IAsp profile from 2 hours): 841 pmol·h/L
  Cmax (maximum IAsp concentration): 384 pmol/L
[1]; primary endpoint, LS mean, n = 56 faster aspart
  AUCIAsp,0-30min LS Mean: 42 pmol·h/L
[2]; people with T2D
  Injection site reactions or treatment-emergent hypoglycaemic episodes: no injection site reactions or treatment‐emergent hypoglycaemic episodes were reported
  Tolerability: well tolerated
[2]; safety analysis set 61 participants with T2D, onset within 7 days of dosing
  Number of treatment-emergent AEs: 11
[3]; [5]
  t50% max FFA decline (time to reach 50% of the maximum decline in FFA): 50.0 ± 2.3 min
  ΔAOCFFA,0-1 h (area over the baseline-corrected FFA curve, first hour): 0.09 ± 0.01 mmol·h/L
  ΔAOCFFA,0-2 h (area over the baseline-corrected FFA curve, first 2 hours): 0.38 ± 0.02 mmol·h/L
[3]; mean ± spread as printed
  Mean minimum FFA concentration (FFAmin): 0.08 ± 0.05 mmol/L
[4]; offset of glucose-lowering effect, LS mean
  tLate 50% GIRmax (time to 50% of maximum GIR in the late part of the GIR profile): 297.7 min
[4]; clamp up to 12 hours, LS mean
  AUCGIR,0-t (total glucose-lowering effect): 904 mg/kg
[4]; euglycaemic clamp target 5.0 mmol/L, LS mean ± SE
  Onset of action (PG decline by 0.3 mmol/L): 31.3 ± 1.4 min
[4]; [6]
  tEarly 50% GIRmax (time to 50% of maximum GIR in the initial part of the GIR profile): 51.1 ± 2.3 min
  tGIRmax (time to maximum glucose infusion rate): 155.6 ± 8.7 min
[4]; euglycaemic clamp, LS mean
  AUCGIR,0-30min LS Mean: 7.0 mg/kg
  AUCGIR,0-1h LS Mean: 67 mg/kg
  AUCGIR,0-1.5h LS Mean: 127 mg/kg
  AUCGIR,0-2h LS Mean: 210 mg/kg
[4]; LS mean
  AUCGIR,2-t (partial area under the GIR profile from 2 hours): 681 mg/kg
  GIRmax (maximum glucose infusion rate): 3.9 mg/kg/min
